Source: publication doi:10.1101/2021.02.18.431786 (bioRxiv, 2021)

T1: Human ABCG2 (breast cancer resistance protein), wild type, N-terminal Flag tag, reconstituted in nanodiscs (human), Q9UNQ0
T1 chain: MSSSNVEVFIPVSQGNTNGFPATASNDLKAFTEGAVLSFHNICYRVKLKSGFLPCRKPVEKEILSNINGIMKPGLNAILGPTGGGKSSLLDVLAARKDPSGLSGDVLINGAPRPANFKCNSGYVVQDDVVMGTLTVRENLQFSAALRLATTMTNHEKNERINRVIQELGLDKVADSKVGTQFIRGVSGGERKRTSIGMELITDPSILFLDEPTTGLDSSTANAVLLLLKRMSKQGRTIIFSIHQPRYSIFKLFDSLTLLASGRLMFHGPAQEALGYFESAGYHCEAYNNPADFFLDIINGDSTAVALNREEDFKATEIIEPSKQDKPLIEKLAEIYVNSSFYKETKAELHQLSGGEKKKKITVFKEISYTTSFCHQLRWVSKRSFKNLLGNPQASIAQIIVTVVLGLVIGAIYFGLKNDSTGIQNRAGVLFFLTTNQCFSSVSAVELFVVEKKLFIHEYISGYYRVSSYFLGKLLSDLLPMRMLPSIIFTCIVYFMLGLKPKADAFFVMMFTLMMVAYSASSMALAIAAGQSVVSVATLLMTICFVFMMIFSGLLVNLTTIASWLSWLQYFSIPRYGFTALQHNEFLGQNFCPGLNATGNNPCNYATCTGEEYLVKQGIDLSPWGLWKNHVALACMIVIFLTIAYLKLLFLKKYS


Assays:
[1] = molecular target: T1, Human ABCG2 (breast cancer resistance …); assay: cryo-EM structure; conditions: remark: other sources report otherwise
[2] = molecular target: Human ABCG2 (breast cancer resistance protein), wild type, N-terminal Flag tag, reconstituted in nanodiscs (human, UniProt Q9UNQ0); assay: cryo-EM structure

| stoichiometry N [1] | binding result [2] | Binder |
| --- | --- | --- |
| 2 |  | Human ABCG2 (breast cancer resistance protein), wild type, N-terminal Flag tag, reconstituted in nanodiscs, Q9UNQ0 1-655 (natural protein) MSSSNVEVFIPVSQGNTNGFPATASNDLKAFTEGAVLSFHNICYRVKLKSGFLPCRKPVEKEILSNINGIMKPGLNAILGPTGGGKSSLLDVLAARKDPSGLSGDVLINGAPRPANFKCNSGYVVQDDVVMGTLTVRENLQFSAALRLATTMTNHEKNERINRVIQELGLDKVADSKVGTQFIRGVSGGERKRTSIGMELITDPSILFLDEPTTGLDSSTANAVLLLLKRMSKQGRTIIFSIHQPRYSIFKLFDSLTLLASGRLMFHGPAQEALGYFESAGYHCEAYNNPADFFLDIINGDSTAVALNREEDFKATEIIEPSKQDKPLIEKLAEIYVNSSFYKETKAELHQLSGGEKKKKITVFKEISYTTSFCHQLRWVSKRSFKNLLGNPQASIAQIIVTVVLGLVIGAIYFGLKNDSTGIQNRAGVLFFLTTNQCFSSVSAVELFVVEKKLFIHEYISGYYRVSSYFLGKLLSDLLPMRMLPSIIFTCIVYFMLGLKPKADAFFVMMFTLMMVAYSASSMALAIAAGQSVVSVATLLMTICFVFMMIFSGLLVNLTTIASWLSWLQYFSIPRYGFTALQHNEFLGQNFCPGLNATGNNPCNYATCTGEEYLVKQGIDLSPWGLWKNHVALACMIVIFLTIAYLKLLFLKKYS |
|  | binds | Fab fragment of the ABCG2-specific monoclonal antibody 5D3 (Fab, V domains shown) VH: QVQLQESGPGLVKPSQSLSLTCTVTGFSITSDYAWNWIRQFPGKKLEWMGYINFDGGTTYNPSLRGRISITRDTSKNQFFLQLRSVTPEDTATYYCATFYGAKGTLDYWGQGTSVTVSS VL: DIVLTQSPSSFSVSLGDRVTISCKASGYILNRLAWYQQKPGNAPRLLISGATSLETGFPSRFSGTGSGKDYTLSISSLQTEDVGTYYCQQYWSTPWTFGGGTKLEIR |
